Source: patent US20060264616

T1: reconstituted tissue factor (Innovin, Dade) and membrane, P13726
T1 chain: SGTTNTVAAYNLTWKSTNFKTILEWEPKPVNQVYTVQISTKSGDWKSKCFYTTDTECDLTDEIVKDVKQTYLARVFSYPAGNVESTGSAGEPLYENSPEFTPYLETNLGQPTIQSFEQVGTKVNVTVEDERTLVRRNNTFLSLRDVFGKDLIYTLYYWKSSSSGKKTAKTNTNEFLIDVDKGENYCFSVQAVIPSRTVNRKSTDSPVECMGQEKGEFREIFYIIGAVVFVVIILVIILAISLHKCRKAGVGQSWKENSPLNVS


Experiments:
[1] = target: reconstituted tissue factor (Innovin, Dade) and membrane (UniProt P13726)
[2] = target: T1, reconstituted tissue factor (Innovin, …)

Row | Molecule | activity (competitive assay described in Example 6) [1] | activity in the competitive assay described in Example 6 [2]
1 | Factor VII mutant Q11E33I34F35 | displayed similar activity as the Q11E33F34I35 mutant | –
2 | factor VII F5K (protein) ANAKLEELRPGSLERECKEEQCSFEEAREIFKDAERTKLFWISYSDGDQCASSPCQNGGSCKDQLQSYICFCLPAFEGRNCETHKDDQLICVNENGGCEQYCSDHTGTKRSCRCHEGYSLLADGVSCTPTVEYPCGKIPILEKRNASKPQGRIVGGKVCPKGECPWQVLLLVNGAQLCGGTLINTIWVVSAAHCFDKIKNWRNLIAVLGEHDLSEHDGDEQSRRVAQVIIPSTYVPGTTNHDIALLRLHQPVVLTDHVVPLCLPERTFSERTLAFVRFSLVSGWGQLLDRGATALELMVLNVPRLMTQDCLQQSRKVGDSPNITEYMFCAGYSDGSKDSCKGDSGGPHATHYRGTWYLTGIVSWGQGCATVGHFGVYTRVSQYIEWLQKLMRSEPRPGVLLRAPFP | – | a protein with 33% of the activity of wild type factor VII
3 | factor VII mutant Q11E33D36 (protein) ANAFLEELRQGSLERECKEEQCSFEEAREIFEDADRTKLFWISYSDGDQCASSPCQNGGSCKDQLQSYICFCLPAFEGRNCETHKDDQLICVNENGGCEQYCSDHTGTKRSCRCHEGYSLLADGVSCTPTVEYPCGKIPILEKRNASKPQGRIVGGKVCPKGECPWQVLLLVNGAQLCGGTLINTIWVVSAAHCFDKIKNWRNLIAVLGEHDLSEHDGDEQSRRVAQVIIPSTYVPGTTNHDIALLRLHQPVVLTDHVVPLCLPERTFSERTLAFVRFSLVSGWGQLLDRGATALELMVLNVPRLMTQDCLQQSRKVGDSPNITEYMFCAGYSDGSKDSCKGDSGGPHATHYRGTWYLTGIVSWGQGCATVGHFGVYTRVSQYIEWLQKLMRSEPRPGVLLRAPFP | – | had 70% the activity of the Q11E33 mutant
4 | Factor VII mutant Q11E33F34I35 (protein) ANAFLEELRQGSLERECKEEQCSFEEAREIFEFIERTKLFWISYSDGDQCASSPCQNGGSCKDQLQSYICFCLPAFEGRNCETHKDDQLICVNENGGCEQYCSDHTGTKRSCRCHEGYSLLADGVSCTPTVEYPCGKIPILEKRNASKPQGRIVGGKVCPKGECPWQVLLLVNGAQLCGGTLINTIWVVSAAHCFDKIKNWRNLIAVLGEHDLSEHDGDEQSRRVAQVIIPSTYVPGTTNHDIALLRLHQPVVLTDHVVPLCLPERTFSERTLAFVRFSLVSGWGQLLDRGATALELMVLNVPRLMTQDCLQQSRKVGDSPNITEYMFCAGYSDGSKDSCKGDSGGPHATHYRGTWYLTGIVSWGQGCATVGHFGVYTRVSQYIEWLQKLMRSEPRPGVLLRAPFP | – | The activity of the resulting mutant Q11E33F34135 was 60% that of the Q11E33F34 mutant
